According to US20100048468A1 (Amgen, published 2010):
Like-named read-outs stand apart in the source and are kept apart here. Non-standard residues stand in square brackets, D forms with d. Primed or numbered codes have the meaning given here. No end group written: not given here. Aib′ = alpha aminobutyric acid (source's wording)

T1: mouse GLP-1 receptor (mouse, UniProt O35659 22-463)
T1 sequence (looked up): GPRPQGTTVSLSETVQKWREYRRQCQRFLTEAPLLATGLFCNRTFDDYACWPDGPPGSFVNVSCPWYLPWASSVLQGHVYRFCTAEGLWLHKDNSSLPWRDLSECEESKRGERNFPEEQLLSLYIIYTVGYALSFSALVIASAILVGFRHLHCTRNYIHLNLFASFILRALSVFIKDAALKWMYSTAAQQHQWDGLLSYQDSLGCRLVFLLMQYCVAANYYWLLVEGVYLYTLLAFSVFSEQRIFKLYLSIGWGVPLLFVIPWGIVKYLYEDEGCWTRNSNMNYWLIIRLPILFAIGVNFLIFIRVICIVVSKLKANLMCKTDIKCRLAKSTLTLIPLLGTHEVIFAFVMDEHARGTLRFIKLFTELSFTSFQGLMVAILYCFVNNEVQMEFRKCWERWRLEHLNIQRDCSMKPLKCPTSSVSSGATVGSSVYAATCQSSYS


What was measured:
human GLP-1 receptor [1] = target: T2, human GLP-1 receptor (human, UniProt P43220 24-463); experiment: cell-based or functional assay
mouse GLP-1 receptor [2] = target: T1, mouse GLP-1 receptor; experiment: cell-based or functional assay
human GLP-1 receptor [3] = target: T2, human GLP-1 receptor; experiment: 125I-GLP-1 displacement, membranes of CHOK1 cells expressing human GLP-1 receptor
Method: (§1) Membrane Preparation. […] Cells were sedimented at 1500 rpm for 10 minutes. The resulting pellets were homogenized in 15 mls of ice cold sucrose buffer (25 mM Tris-HCl, 0.32 M Sucrose, 0.25 g/L, sodium azide, pH 7.4) with a motorized, glass fitted, Teflon homogenizer. The homogenate was centrifuged at 48,000×g at 4° C. for 10 minutes, resuspended in 25 ml assay buffer (50 mM Tris-HCl, 5 mM MgCl₂, 10 mg/ml protease-free BSA, 0.1 mg/ml STI, and 0.1 mg/ml Pefabloc, pH 7.4) with a Tissue-Tearor (Biospec Products), then centrifuged again at 48,000×g for 10 minutes. The pellets were homogenized for a third time in 15 ml assay buffer using the Tissue-Tearor and again centrifuged at 48,000×g for 10 minutes. The resulting pellet was resuspended in assay buffer at a wet weight concentration of 4 mg/ml.
(§2) Ligand Binding Assay. Binding assays were performed in 96-well U-bottom plates. […] The reaction was terminated by rapid filtration through Unfilter-96 GF/C glass fiber filter plates (FilterMate 196 Packard Harvester, PerkinElmer, Shelton, Conn.) pre-soaked in 0.5% polyethylenimine, followed by three washes with 300 μl of cold 50 mM Tris-HCl, pH 7.4. Bound radioactivity was determined using a TopCount microplate scintillation and luminescence counter (Packard Instrument Company, PerkinElmer, Shelton, Conn.). Nonlinear regression analyses of resulting concentration curves were performed using GraphPad Prism (GraphPad Software, Inc., San Diego, Calif.).

human GLP-1 receptor [4] = target: T2, human GLP-1 receptor; experiment: cell-based or functional assay; remark: listed apart in the source
mouse GLP-1 receptor [5] = target: T1, mouse GLP-1 receptor; experiment: cell-based or functional assay; remark: listed apart in the source
human GLP-1 receptor [6] = target: T2, human GLP-1 receptor; experiment: 125I-GLP-1 displacement, membranes of CHOK1 cells expressing human GLP-1 receptor; remark: listed apart in the source
Method: as §1
as §2, with “Calif.). […]” for “Calif.).”

mouse GLP-1 receptor [7] = target: T1, mouse GLP-1 receptor; experiment: cell-based or functional assay; remark: listed apart in the source

Binder	EC50 human (human GLP-1 receptor [1]) [nM]	EC50 mouse (mouse GLP-1 receptor [2]) [nM]	IC50 (human GLP-1 receptor [3]) [nM]	EC50 human (human GLP-1 receptor [4]) [nM]	EC50 mouse (mouse GLP-1 receptor [5]) [nM]	IC50 (human GLP-1 receptor [6]) [nM]	EC50 mouse (mouse GLP-1 receptor [7]) [nM]
AHAEGTFTSDVSSYLEGQAAKEFIAWLVKGR (Not pegylated) [A-GLP-1 (SEQ ID NO: 247)]	0.2	0.8	38	–	–	–	–
MHAEGTFTSDVSSYLEGQAAKEFIAWLVKGR (Not pegylated) [M-GLP1 (SEQ ID NO: 256)]	0.086	0.5	–	–	–	–	–
PHAEGTFTSDVSSYLEGQAAKEFIAWLVKGR (ends and bridges not checked, Not pegylated; also called P-CLP-1) [P-GLP-1 (SEQ ID NO: 249)]	0.2	1	38	–	–	–	–
GHAEGTFTSDVSSYLEGQAAKEFIAWLVKGR (not fully specified, Not pegylated) [G-GLP-1 (SEQ ID NO: 248)]	1	3	80	–	–	–	–
SHAEGTFTSDVSSYLEGQAAKEFIAWLVKGR (ends and bridges not checked, Not pegylated; also called S-CLP-1) [S-GLP-1 (SEQ ID NO: 250)]	0.4	2	53	–	–	–	–
VHAEGTFTSDVSSYLEGQAAKEFIAWLVKGR (ends and bridges not checked, Not pegylated) [V-GLP-1 (SEQ ID NO: 252)]	0.2	1	32	–	–	–	–
THAEGTFTSDVSSYLEGQAAKEFIAWLVKGR (not fully specified; ends and bridges not checked, Not pegylated) [T-GLP-1 (SEQ ID NO: 251)]	0.3	2	53	–	–	–	–
HGEGTFTSDVSSYLE[Aib′]QAAKEFIAWLVKGRGC(mPEG‑maleimide 10 kDa)SG-NH2 [cgGLP-26 (SEQ ID NO: 22 + 10k PEG)]	–	–	–	0.059	0.9	23	–
HGEGTFTSDVSSYLE[Aib′]QAAKEFIAWLVKGRGC(mPEG‑maleimide 20 kDa)A-NH2 (also called cgGLP30) [mgGLP32 & mgGLP-20 (SEQ ID NO: 18 + 20k PEG)]	–	–	–	0.13	0.84	56	–
HGEGTFTSDVSSYLE[Aib′]QAAKEFIAWLVKGRGC(mPEG‑maleimide 20 kDa)G-NH2 [mgGLP-16 (SEQ ID NO: 20 + 20k PEG)]	–	–	–	0.2	1.6	50	–
MHHHAEGTFTSDVSSYLEGQAAKEFIAWLVKGR (ends and bridges not checked, Not pegylated) [MHH-GLP1 (SEQ ID NO: 258)]	1	5	350	–	–	–	–
HGEGTFTSDVSSYLEGC(PEG 20 kDa)AAKEFIAWLKNGGPSSGAPPPS [cgGLP-13 (SEQ ID NO: 8 + 20k PEG monomer)]	–	–	–	–	–	–	3
HGEGTFTSDVSSYLE[Aib′]QAAKEFIAWLVKGRGC(mPEG‑maleimide 20 kDa)SG (also called cgGLP-19) [mgGLP19 & cgGLP- (SEQ ID NO: 21 + 20k PEG)]	–	–	–	0.00032	4	230	–
HGEGTFTSDVSSYLE[Aib′]QAAKEFIAWLVKGRGC(mPEG‑maleimide 5 kDa)SG-NH2 (also called cgGLP-25) [cpGLP-25 (SEQ ID NO: 22 + 5k PEG)]	–	–	–	0.039	0.9	15	–
HGEGTFTSDVSSYLE[Aib′]QAAKEFIAWLVKGRG-NH2 [HGEGT FTSDV SSYLE [Aib]QAAK EFIAW LVKGR G-AMIDE (SEQ ID NO: 15)]	–	–	–	0.027	0.12	3.5	–
MQHAEGTFTSDVSSYLEGQAAKEFIAWLVKGR (ends and bridges not checked, Not pegylated) [MQ-GLP1 (SEQ ID NO: 253)]	0.5	3	64	–	–	–	–
MEHAEGTFTSDVSSYLEGQAAKEFIAWLVKGR (Not pegylated) [ME-GLP1 (SEQ ID NO: 264)]	1	4	95	–	–	–	–
MFHAEGTFTSDVSSYLEGQAAKEFIAWLVKGR (ends and bridges not checked, Not pegylated) [MF-GLP1 (SEQ ID NO: 266)]	1	6	180	–	–	–	–
MLHAEGTFTSDVSSYLEGQAAKEFIAWLVKGR (ends and bridges not checked, Not pegylated) [ML-GLP1 (SEQ ID NO: 262)]	0.7	6	160	–	–	–	–
MHHAEGTFTSDVSSYLEGQAAKEFIAWLVKGR (ends and bridges not checked, Not pegylated) [MH-GLP1 (SEQ ID NO: 257)]	2	11	350	–	–	–	–
MNHAEGTFTSDVSSYLEGQAAKEFIAWLVKGR (ends and bridges not checked, Not pegylated) [MN-GLP1 (SEQ ID NO: 263)]	0.3	2	50	–	–	–	–
MWHAEGTFTSDVSSYLEGQAAKEFIAWLVKGR (ends and bridges not checked, Not pegylated) [MW-GLP1 (SEQ ID NO: 265)]	0.8	5	79	–	–	–	–
MYHAEGTFTSDVSSYLEGQAAKEFIAWLVKGR (ends and bridges not checked, Not pegylated) [MY-GLP1 (SEQ ID NO: 259)]	0.4	1	57	–	–	–	–
MDHAEGTFTSDVSSYLEGQAAKEFIAWLVKGR (Not pegylated) [MD-GLP1 (SEQ ID NO: 261)]	0.3	2	82	–	–	–	–
MRHAEGTFTSDVSSYLEGQAAKEFIAWLVKGR (ends and bridges not checked, Not pegylated) [MR-GLP1 (SEQ ID NO: 254)]	8	41	590	–	–	–	–
MKHAEGTFTSDVSSYLEGQAAKEFIAWLVKGR (not fully specified; ends and bridges not checked, Not pegylated) [MK-GLP1 (SEQ ID NO: 255)]	4	12	760	–	–	–	–
MMHAEGTFTSDVSSYLEGQAAKEFIAWLVKGR (not fully specified; ends and bridges not checked, Not pegylated) [MM-GLP1 (SEQ ID NO: 267)]	0.5	3	100	–	–	–	–
MIHAEGTFTSDVSSYLEGQAAKEFIAWLVKGR (not fully specified; ends and bridges not checked, Not pegylated) [MI-GLP1 (SEQ ID NO: 260)]	0.6	6	75	–	–	–	–
HGEGTFTSDVSSYLE[Aib′]QAAKEFIAWLVKGRGC(mPEG‑maleimide 20 kDa)SG-NH2 [cgGLP-24 cgGLP-27, mgGLP-22, mgGLP-33 & mgGLP-27 (SEQ ID NO: 22 + 20k PEG)]	–	–	–	0.1	0.84	47	–
